Laboratory results taken from the supplement of paper PMC9170038.

System: MS2 coat protein
Experiment: apparent KD of MS2 coat protein; designed switch direction (-1 OFF switch, 1 ON switch): -1; higher = weaker reporter binding
Outline: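 The buffer was Tris-HCl pH 7.5 with KCl, MgCl2, BSA, DTT, tRNA and Tween-20. In it, SNAP-549-labelled MS2 coat protein was titrated in doubling steps from 0.7 or 1.5 nM to 3 µM over chip-bound RNA switches transcribed by stalled E. coli RNA polymerase on Illumina chips. Apparent KD is the per-design median over clusters of curve fits to normalised fluorescence.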

[1] = Eterna round: R95, input ligand: FMN 200 uM
[2] = Eterna round: R95, input ligand: microRNA oligo, concentration not stated
[3] = Eterna round: R95, input ligand: none
[4] = input ligand: microRNA oligo, concentration not stated

Sequence | apparent KD of MS2 coat protein [1] [nM] | apparent KD of MS2 coat protein [2] [nM] | apparent KD of MS2 coat protein [3] [nM] | apparent KD of MS2 coat protein (input ligand: FMN 200 uM) [nM] | apparent KD of MS2 coat protein (input ligand: none) [nM] | apparent KD of MS2 coat protein [4] [nM]
CGUUACUACAAGCUUUGGGACAUGAGGAUCACCCAUGUUCGUCUUAUUGUAGUAGGUACGCUGACGUACCUACUACU [JL-sv1-2.10 Brourd mod] (puzzle: Sensor v3, turn-off variant 1) | 15.6 | 29 | 13.9 | – | – | –
UCUUACUGAGGAUAUACAUAGAUUUACAUGAGGAUCACCCAUGUUCCUCUAUGUAUAAAUGUAGAAGGCAGAAGAU [Mat - Exclusion 5 - JL Mod - D54] (Eterna round: R97, puzzle: Exclusion 5) | – | – | – | 72.9 | 18 | –
UUAUUGUGAGGAUAUCAGGUGUGCUAGCGUACUGGUACAUCUGAGAAGGCACAUGAGGAUCACCCAUGUUCCUU [JL-ex4-3.26 Brourd mod] (puzzle: Exclusion 4) | – | 14.4 | – | – | – | –
CUUAGACAUGAGGAUCACCCAUGUCAGGAUAUCGUCUACCUGUGGAAACACAGGUAGACGAGAAGGGAUGUGUU [SS1 Omei 3] (puzzle: Exclusion 1) | – | 37.8 | – | – | – | –
GGAUCGAAUGUGAGGAUAUGCAGGUCCUUGGAUCUGCAGAAGGCACAUGAGGAUCACCCAUGUGACCUAGAUCC [Mat - Exclusion 4 - Eli Mod - D44] (Eterna round: R97, puzzle: Brourd's mod of Exclusion 4) | – | – | – | 268 | 30.5 | –
ACAUGAGGAUCACCCAUGUAAUGAUGGGUACUAUAUUAUUCGUAGGAUAUCGUUGUUAGUUUGUGCGAGAAGGACGUUUGCCUU [JR_ExcNG3_Sub056] (Eterna round: R96, puzzle: Exclusion NG 3) | – | – | – | 994 | 698 | 667
CCGGCUUAGGAGGAUAUCCCACCCGAAAGGGUGGGAGAAGGCCUAACAUGAGGAUCACCCAUGUGUCCUACCGG [Mod of Eli 15 - Jieux - Exclusion 6] (Eterna round: R97, puzzle: Exclusion 6) | – | – | – | 91.2 | 25.5 | –
CUUCGGCGAGGAUAUUACGAGAACGACAUGAGGAUCACCCAUGUGAUCGAGGUUGCCUCGUAAGAAGGCGCAUAUA [Reederedle] (Eterna round: R97, puzzle: Exclusion 5) | – | – | – | 1050 | 244 | –
UCUAGCUUUUUGCGUCAAGCAUUGAAGUCUGUGAUCGUAACAUGAGGAUCACCCAUGUAAGUUUUAUGUCGUCUUGU [JR_SV3TOV2_Sub098] (puzzle: Sensor v3, turn-off variant 2) | 47.8 | 41.4 | 63.3 | – | – | –
AAUAAGAAGUAAGGAUAUCUGAAAGGAAGUGUAAGAGAAGGUACGGUGACGUCAGAACGACAUGAGGAUCACCCAUGUAAAGAA [PowerStrip EXNG 1.11] (Eterna round: R96, puzzle: Exclusion NG 1) | – | – | – | 79 | 93.9 | 69.6
AAUUAGCAAGCGAGAUCCCACAUGAGGAUCACCCAUGUGCUCGUCUUAUAAGGUACUGUGACAAAAGUCACGGUACC [Mat - Sensor, turn-off var - Eli Mod - D18] (Eterna round: R97, puzzle: Sensor, turn-off variant 1) | – | – | – | 17.9 | 18.1 | –
UGAGAGCAAGGAUAUACGUUGGUGUAUACCCGGGUAUGUAUACAUGAGGAUCACCCAUGUAGAAGGUGCACAAA [EX2 B.1] (Eterna round: R97, puzzle: Exclusion 2) | – | – | – | 120 | 36 | –
UACAUGAGGAUCACCCAUGUUUUGUCGUGUAUGGUAUUUAUCUAGGAUAUCAAUUUGUUAAUUUAUGAGAAGGAGAAUAUUAAU [JMF's solution 69] (Eterna round: R96, puzzle: Exclusion NG 3) | – | – | – | – | – | 29.6
AGGGAUAAAGGAUAUACAUGAGGAUCACCCAUGUUGAGGAAAGUGAGAUGAGGAGGAAGUAGAAGGUUAGGCGA [JR_Exclu3_Sub085] (puzzle: Exclusion 3) | 37.2 | 37.7 | 47.4 | – | – | –
ACGACUGGAGGAUAUGCUCUGGGAGCGAUCGUAUAAGCAGUACUUGAGGAUCACCCAAGUAGAAGGUCAGCUCG [Riorus] (Eterna round: R97, puzzle: Exclusion 2) | – | – | – | 140 | 37.6 | –
UAUUUCAUCUAUGGGAGUAACAUGAGGAUCACCCAUGUAUGUCUUGUUUUUUGUUCGUCUAAGACUUUCUGAUCAGU [JR_SV3TOV1_Sub031] (Eterna round: R96, puzzle: Sensor v3, turn-off variant 1) | – | – | – | 39.4 | 35.6 | 43.1
AAUGGUAAAGUCAGGAUAUACGUACGUCGUUCUAGGUAGAAGGGACAUGAGGAUCACCCAUGUAUGAUAGUAAA [Ex4 #34] (Eterna round: R97, puzzle: Brourd's mod of Exclusion 4) | – | – | – | 24.1 | 32.9 | –
AAUGCCAGAGGAUAUACAUGAGGAUCACCCAUGUUAAAUGAUCCUGUGCUAGAUGCACGUAGAAGGCUGUAAAA [EX3 A.8] (Eterna round: R97, puzzle: Exclusion 3) | – | – | – | 15.5 | 12.9 | –
